The results in this text go back to PMC6499997, “SGIP1α functions as a selective endocytic adaptor for the internalization of synaptotagmin 1 at synapses” (Molecular Brain, 2019).

The target of the experiment is T1, Recombinant human GST-Syt1-C2AB domain (human, UniProt P21579 81-422).
T1 construct: human synaptotagmin 1, cytoplasmic C2AB domains (C2A and C2B); Construct was a gift (Dr. Namgi Lee); also called C2AB fusion protein; GST-fused cytoplasmic (C2AB) domains of Syt1; not shown: GST, N-terminal, kept
T1 sequence (P21579 81-422): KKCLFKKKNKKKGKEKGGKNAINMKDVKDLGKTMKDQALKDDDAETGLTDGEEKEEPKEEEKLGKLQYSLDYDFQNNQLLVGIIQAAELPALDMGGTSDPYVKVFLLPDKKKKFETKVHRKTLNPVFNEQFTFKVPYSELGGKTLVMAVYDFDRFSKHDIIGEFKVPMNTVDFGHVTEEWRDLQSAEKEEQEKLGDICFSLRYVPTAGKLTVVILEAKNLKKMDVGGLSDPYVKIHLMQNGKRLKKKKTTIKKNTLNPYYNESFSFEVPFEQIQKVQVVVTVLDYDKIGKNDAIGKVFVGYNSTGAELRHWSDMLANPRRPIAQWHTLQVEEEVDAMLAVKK
The experiment is described as follows: pull-down; GST fusion protein on beads incubated with cleared extracts of transfected HEK293T cells (1 mg at 1 mg/ml) for 4 h at 4 °C; lysis buffer 20 mM Tris-HCl pH 8.0, 137 mM NaCl, 2 mM EDTA, 1% Triton X-100; bound proteins detected by immunoblot for HA. The note with it: one partner purified. A general note: In western blotting, separated proteins are transferred to a membrane and probed.

B1: HA-SGIP1α-mut (W771A/K781A) (natural protein, mouse, UniProt Q8VD37-6 1-854, looked up)
chain: MMEGLKKRTRKAFGIRKKEKDTDSTGSPDRDGMQGKKKAQKTQLLLTSCFWLRALSLTLSQQPSPHEPPYHSKAECAREGGKKASKKSNGAPNGFYAEIDWERYNSPELDEEGYSIRPEEPGSTKGKHFYSSSESEEEEESHKKFNIKIKPLQSKDVLKNAATVDELKASIGNIALSPSPVRKSPRRSPGAIKRNLSSEEVARPRRSTPTPELTSKKPLDDTLALAPLFGPPLESAFDEQKTEVLLDQPEIWGSGQPMNPSTESPELARPFPTGTPPPLPPKTVPATPPRTGSPLTVATGNDQAATEAKIEKLPSISDLDSIFGPVLSPKSVAVNTEEKWVHFSDASPEHVTPELTPREQVVTPPAASDIPADSPAPAPPGPTGSAGPPGPPGPRHVPSPLNLEEVQKKVAEQTFIKDDYLETLSSPKECGLGQRATPPPPPPPTYRTVVSSPGPGSGSGTGTTSGASSPARPATPLVPCSTTPPPPPPRPPSRPKLPPGKPGVGDVSRPFSPPIHSSSPPPIAPLARAESTSSISSTNSLSAATTPTVENEQPSLVWFDRGKFYLTFEGSSRGPSPLTMGAQDTLPVAAAFTETVNAYFKGADPSKCIVKITGEMVLSFPAGITRHFANNPSPAALTFRVVNSSRLEHVLPNPQLLCCDNTQNDANTKEFWVNMPNLMTHLKKVSEQKPQATYYNVDMLKYQVSAQGIQSTPLNLAVNWRCEPASTDLRIDYKYNTDAMSTAVALNNVQFLVPIDGGVTKLQAVLPPAVANAEQQRILWAIPDISQKSENGGVGSLLARFQLSEGPSKPSPLVVQFTSEGSTLSGCDIELVGAGYRFSLIKKRFAAGKYLADN
notes: numbers count on: SGIP1α (NM_001285852.1); Made by site-directed mutagenesis; also called HA-SGIP1α mutant W771A/K781A; W771A/K781A mutant; source: HEK293T, transfected, in lysate
As to B1, the “relative band intensity (SGIP1α = 1)” value was 0.2 relative to SGIP1α.
